Measurements: the supplement of paper PMC7877785
± gives the uncertainty stated by the source.

Assay: self-splicing fitness, log relative to wild type (ln ratio); higher = more splicing; Tetrahymena group I intron in knt gene, E. coli kanamycin selection, DiMSum; sequences stand for … in CUCUCU…GGAGGGAAAAGUUAUCAGGCAUGCACCUGGUAGCUAGUCUUUAAACCAAUAGAUUGCAUCGGUUUAAAAGGCAAGACCGUCAAAUUGCGGGAAAGGGGUCAACAGCCGUUCAGUACCAAGUCUCAGGGGAAACUUUGAGAUGGCCUUGCAAAGGGUAUGGUAAUAAGCUGACGGACAUGGUCCUAACCACGCAGCCAAGUCCUAAGUCAACAGAUCUUCUGUUGAUAUGGAUGCAGUUCACAGACUAAAUGUCGGUCGGGGAAGAUGUAUUCUUCUCAUAAGAUAUAGUCGGACCUCUCCUUAAUGGGAGCUAGCGGAUGAAGUGAUGCAACACUGGAGCCGCUGGGAACUAAUUUGUAUGCGAAAGUAUAUUGAUUAGUUUUGGAGUACUCGUGGUCG
Outline: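 A randomised library covering all eight P1ex-region intron nucleotides was built with the intron in the knt kanamycin-resistance gene on pET-22b(+) and held in E. coli BL21(DE3). Cells were grown overnight at 37°C or 30°C on LB agar, with or without 25 μg/mL kanamycin, plus 100 μg/mL carbenicillin, 50 μM IPTG and 0.2% rhamnose, and pooled colonies were amplicon-sequenced on an Illumina HiSeq 2500. DiMSum fitness is the error-weighted combination of wild-type-normalised replicate fold changes, kanamycin versus none.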

Sequence: AUGUAGCAAUAUUACGCAAA
- self-splicing fitness (ln) (30 °C): -2.34 ± 0.33
- self-splicing fitness (ln) (37 °C): -1.07 ± 0.2

Sequence: AUGUAGCAAUAUUACGCAAU
- self-splicing fitness (ln) (30 °C): -1.49 ± 0.13
- self-splicing fitness (ln) (37 °C): -1.01 ± 0.23

Sequence: AUGUAGCAAUAUUACGCACU
- self-splicing fitness (ln) (30 °C): -0.786 ± 0.099
- self-splicing fitness (ln) (37 °C): 0.708 ± 0.14

Sequence: AUGUAGCAAUAUUACGCAUG
- self-splicing fitness (ln) (30 °C): -1.38 ± 0.095
- self-splicing fitness (ln) (37 °C): -0.413 ± 0.12

Sequence: AUGUAGCAAUAUUACGCCGA
- self-splicing fitness (ln) (30 °C): -2.44 ± 0.2
- self-splicing fitness (ln) (37 °C): -0.724 ± 0.16

Sequence: AUGUAGCAAUAUUACGCCUU
- self-splicing fitness (ln) (30 °C): -0.114 ± 0.1
- self-splicing fitness (ln) (37 °C): -0.413 ± 0.13

Sequence: AUGUAGCAAUAUUACGCGUC
- self-splicing fitness (ln) (30 °C): -2.6 ± 0.22
- self-splicing fitness (ln) (37 °C): -2.32 ± 0.3

Sequence: AUGUAGCAAUAUUACGCUAC
- self-splicing fitness (ln) (30 °C): -3.14 ± 0.34
- self-splicing fitness (ln) (37 °C): -2.59 ± 0.34

Sequence: AUGUAGCAAUAUUACGCUAG
- self-splicing fitness (ln) (30 °C): -1.61 ± 0.21
- self-splicing fitness (ln) (37 °C): -0.5 ± 0.22

Sequence: AUGUAGCAAUAUUACGCUAU
- self-splicing fitness (ln) (30 °C): -3.81 ± 0.23
- self-splicing fitness (ln) (37 °C): -2.6 ± 0.23

Sequence: AUGUAGCAAUAUUACGGAUU
- self-splicing fitness (ln) (30 °C): -1.57 ± 0.092
- self-splicing fitness (ln) (37 °C): -0.598 ± 0.091

Sequence: AUGUAGCAAUAUUACGGCCC
- self-splicing fitness (ln) (30 °C): -0.72 ± 0.34
- self-splicing fitness (ln) (37 °C): -0.359 ± 0.25

Sequence: AUGUAGCAAUAUUACGGGCA
- self-splicing fitness (ln) (30 °C): -0.222 ± 0.11
- self-splicing fitness (ln) (37 °C): 0.141 ± 0.1

Sequence: AUGUAGCAAUAUUACGGUCG
- self-splicing fitness (ln) (30 °C): -1.44 ± 0.12
- self-splicing fitness (ln) (37 °C): -1.59 ± 0.17

Sequence: AUGUAGCAAUAUUACGUAUG
- self-splicing fitness (ln) (30 °C): -3.84 ± 0.29
- self-splicing fitness (ln) (37 °C): -3.16 ± 0.28

Sequence: AUUAAGCAAUAUUACGAACG
- self-splicing fitness (ln) (30 °C): -1.59 ± 0.18
- self-splicing fitness (ln) (37 °C): -0.243 ± 0.15

Sequence: AUUAAGCAAUAUUACGAAGG
- self-splicing fitness (ln) (30 °C): -3.82 ± 0.4
- self-splicing fitness (ln) (37 °C): -2.5 ± 0.44

Sequence: AUUAAGCAAUAUUACGAAGU
- self-splicing fitness (ln) (30 °C): -2.77 ± 0.22
- self-splicing fitness (ln) (37 °C): -0.565 ± 0.21

Sequence: AUUAAGCAAUAUUACGACAU
- self-splicing fitness (ln) (30 °C): 0.191 ± 0.012
- self-splicing fitness (ln) (37 °C): 0.193 ± 0.032

Sequence: AUUAAGCAAUAUUACGACCG
- self-splicing fitness (ln) (30 °C): -1.51 ± 0.1
- self-splicing fitness (ln) (37 °C): -0.619 ± 0.16

Sequence: AUUAAGCAAUAUUACGAGAG
- self-splicing fitness (ln) (30 °C): -2.61 ± 0.24
- self-splicing fitness (ln) (37 °C): -1.83 ± 0.27

Sequence: AUUAAGCAAUAUUACGAGUG
- self-splicing fitness (ln) (30 °C): -2.42 ± 0.1
- self-splicing fitness (ln) (37 °C): -2.37 ± 0.14

Sequence: AUUAAGCAAUAUUACGAUGC
- self-splicing fitness (ln) (30 °C): -2.09 ± 0.15
- self-splicing fitness (ln) (37 °C): -1.86 ± 0.17

Sequence: AUUAAGCAAUAUUACGCACU
- self-splicing fitness (ln) (30 °C): -0.21 ± 0.13
- self-splicing fitness (ln) (37 °C): -0.414 ± 0.13

Sequence: AUUAAGCAAUAUUACGCAUU
- self-splicing fitness (ln) (30 °C): -2.35 ± 0.14
- self-splicing fitness (ln) (37 °C): -0.664 ± 0.13

Sequence: AUUAAGCAAUAUUACGCUAC
- self-splicing fitness (ln) (30 °C): -2.45 ± 0.43
- self-splicing fitness (ln) (37 °C): -3.4 ± 0.35

Sequence: AUUAAGCAAUAUUACGCUCA
- self-splicing fitness (ln) (30 °C): -0.292 ± 0.068
- self-splicing fitness (ln) (37 °C): -0.258 ± 0.091

Sequence: AUUAAGCAAUAUUACGGAUU
- self-splicing fitness (ln) (30 °C): -2.03 ± 0.12
- self-splicing fitness (ln) (37 °C): -0.791 ± 0.15

Sequence: AUUAAGCAAUAUUACGGCGG
- self-splicing fitness (ln) (30 °C): -1.18 ± 0.16
- self-splicing fitness (ln) (37 °C): -0.145 ± 0.18

Sequence: AUUAAGCAAUAUUACGGGCU
- self-splicing fitness (ln) (30 °C): -1.31 ± 0.13
- self-splicing fitness (ln) (37 °C): -1.47 ± 0.17

Sequence: AUUAAGCAAUAUUACGGGUC
- self-splicing fitness (ln) (30 °C): -2.81 ± 0.21
- self-splicing fitness (ln) (37 °C): -3.49 ± 0.37

Sequence: AUUAAGCAAUAUUACGGUCG
- self-splicing fitness (ln) (30 °C): -1.59 ± 0.11
- self-splicing fitness (ln) (37 °C): -0.942 ± 0.12

Sequence: AUUAAGCAAUAUUACGUAAU
- self-splicing fitness (ln) (30 °C): -1.66 ± 0.11
- self-splicing fitness (ln) (37 °C): -0.745 ± 0.14

Sequence: AUUAAGCAAUAUUACGUAUA
- self-splicing fitness (ln) (30 °C): -1.48 ± 0.16
- self-splicing fitness (ln) (37 °C): -1.35 ± 0.14

Sequence: AUUAAGCAAUAUUACGUCGG
- self-splicing fitness (ln) (30 °C): -2.34 ± 0.18
- self-splicing fitness (ln) (37 °C): -1.2 ± 0.22

Sequence: AUUAAGCAAUAUUACGUUAU
- self-splicing fitness (ln) (30 °C): -1.22 ± 0.097
- self-splicing fitness (ln) (37 °C): -1.1 ± 0.15

Sequence: AUUAAGCAAUAUUACGUUUC
- self-splicing fitness (ln) (30 °C): -3.77 ± 0.35
- self-splicing fitness (ln) (37 °C): -1.65 ± 0.26
